Read-outs that look alike come from different tables or passages of the source. Where no end group is shown, it is not given here. [ ]: non-standard residue; d: D form. fluorescein = fluorescein label on the N-terminus; pT = C[C@@H](OP(=O)(O)O)[C@H](N)C(=O)O; pS = N[C@@H](COP(=O)(O)O)C(=O)O; FAM = fluorescein
Assays:
[1] = target: T1, 14-3-3σ, full-length, recombinant (human, UniProt P31947 1-248); assay: fluorescence polarisation
T1 sequence (looked up): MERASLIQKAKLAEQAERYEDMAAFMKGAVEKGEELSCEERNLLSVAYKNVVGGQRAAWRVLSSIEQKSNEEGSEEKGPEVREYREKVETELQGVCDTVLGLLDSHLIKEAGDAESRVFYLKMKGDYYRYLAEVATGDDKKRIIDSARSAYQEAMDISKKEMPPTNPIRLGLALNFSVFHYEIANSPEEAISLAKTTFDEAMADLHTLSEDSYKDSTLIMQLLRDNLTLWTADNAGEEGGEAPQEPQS

[2] = target: T1, 14-3-3σ, full-length, recombinant; assay: fluorescence polarisation; remark: listed apart in the source
[3] = target: T1, 14-3-3σ, full-length, recombinant; assay: fluorescence polarisation; remark: listed apart in the source
[4] = target: T1, 14-3-3σ, full-length, recombinant; assay: fluorescence polarisation; remark: listed apart in the source
[5] = target: fluorescein-labeled Nup160-ctp (3) (human); assay: fluorescence polarisation
[6] = target: fluorescein-labeled TNFRSF19-ctp (4) (human); assay: fluorescence polarisation
[7] = target: fluorescein-labeled Nup160-ctp (3) (human); assay: fluorescence polarisation; remark: listed apart in the source
[8] = target: fluorescein-labeled TNFRSF19-ctp (4) (human); assay: fluorescence polarisation; remark: listed apart in the source
[9] = target: T1, 14-3-3σ, full-length, recombinant; assay: ITC
[10] = target: T1, 14-3-3σ, full-length, recombinant; assay: ITC; remark: listed apart in the source

Binder | Kd [1] [µM] | Kd [2] [µM] | further results
{FAM}-KYYITGEAEGFPA[pT]A (peptide, UniProt P03372 581-595, looked up) [N-FAM-2 variant with C-terminal residue A] | 19.9 | 0.7 | –
{FAM}-KYYITGEAEGFPA[pT]I (peptide, UniProt P03372 581-595, looked up) [N-FAM-2 variant with C-terminal residue I] | 3.03 | 0.06 | –
{FAM}-KYYITGEAEGFPA[pT]G (peptide, UniProt P03372 581-595, looked up) [N-FAM-2 variant with C-terminal residue G] | 144 | 36.5 | –
{FAM}-KYYITGEAEGFPA[pT]N (peptide, UniProt P03372 581-595, looked up) [N-FAM-2 variant with C-terminal residue N] | 59.5 | 32.4 | –
{FAM}-KYYITGEAEGFPA[pT]V (peptide, UniProt P03372 581-595, looked up) [fluorescein-labeled N-FAM-ERα-ctp (N-FAM-2)] | 3.61 | 0.05 | –
fluorescein-KRSV[pS]L-OH [GPR15-ctp, fluorescein-labeled hexaphosphopeptide KRSVpSL-COOH] | – | – | Kd [3]: 7.36 µM; Kd [4]: 1.1 µM
{FAM}-KYYITGEAEGFPA[pT]S (peptide, UniProt P03372 581-595, looked up) [N-FAM-2 variant with C-terminal residue S] | 79.8 | 3.54 | –
fluorescein-YSGH[pS]L-OH [GpIBα-ctp, fluorescein-labeled hexaphosphopeptide YSGHpSL-COOH] | – | – | Kd [3]: 22.5 µM; Kd [4]: 1.69 µM
{FAM}-KYYITGEAEGFPA[pT]F (peptide, UniProt P03372 581-595, looked up) [N-FAM-2 variant with C-terminal residue F] | 10.5 | 4.03 | –
fluorescein-ARSW[pT]F-OH [IRL9-ctp, fluorescein-labeled hexaphosphopeptide ARSWpTF-COOH] | – | – | Kd [3]: 3.16 µM; Kd [4]: 1.54 µM
fluorescein-RKKR[pS]V-OH [Task3-ctp, fluorescein-labeled hexaphosphopeptide RKKRpSV-COOH] | – | – | Kd [3]: 3.15 µM; Kd [4]: 0.1 µM
14-3-3σ, full-length, recombinant (natural protein) MERASLIQKAKLAEQAERYEDMAAFMKGAVEKGEELSCEERNLLSVAYKNVVGGQRAAWRVLSSIEQKSNEEGSEEKGPEVREYREKVETELQGVCDTVLGLLDSHLIKEAGDAESRVFYLKMKGDYYRYLAEVATGDDKKRIIDSARSAYQEAMDISKKEMPPTNPIRLGLALNFSVFHYEIANSPEEAISLAKTTFDEAMADLHTLSEDSYKDSTLIMQLLRDNLTLWTADNAGEEGGEAPQEPQS | – | – | Kd [5]: 5.34 µM; Kd [6]: 538 µM; Kd [7]: 0.25 µM; Kd [8]: 38 µM
KYYITGEAEGFPA[pT]V (peptide, UniProt P03372 581-595, looked up) [ERα C-terminal phospholigand (ERα-ctp, 2)] | – | – | Kd [9]: 0.75 µM; Kd [10]: 0.02 µM
fluorescein-ALRRQ[pT]-OH [p27Kip1-ctp, fluorescein-labeled hexaphosphopeptide ALRRQpT-COOH] | – | – | Kd [3]: 82.2 µM; Kd [4]: 39.9 µM
{FAM}-KYYITGEAEGFPA[pT]T (peptide, UniProt P03372 581-595, looked up) [N-FAM-2 variant with C-terminal residue T] | 50 | 1.32 | –
{FAM}-KYYITGEAEGFPA[pT]D (peptide, UniProt P03372 581-595, looked up) [N-FAM-2 variant with C-terminal residue D] | 173 | 48.2 | –
{FAM}-KYYITGEAEGFPA[pT]L (peptide, UniProt P03372 581-595, looked up) [N-FAM-2 variant with C-terminal residue L] | 11 | 0.17 | –

Reference: publication PMC7169973 (ACS chemical biology, 2020)
